This note sets out measurements from PMC6930079.

The assay deals with YFP-PP1γ (UniProt P36873). In words: live-cell FRET at kinetochores (FRET/CFP intensity ratio). Particulars: HeLa cells, MG132 for 1 hr before imaging, 37°C; Cells = 6, Area KT = 42 (4A) and 50 (WT); parent: est. 1.6; read off a plot.
Chain of UniProt P36873 (P36873 whole entry): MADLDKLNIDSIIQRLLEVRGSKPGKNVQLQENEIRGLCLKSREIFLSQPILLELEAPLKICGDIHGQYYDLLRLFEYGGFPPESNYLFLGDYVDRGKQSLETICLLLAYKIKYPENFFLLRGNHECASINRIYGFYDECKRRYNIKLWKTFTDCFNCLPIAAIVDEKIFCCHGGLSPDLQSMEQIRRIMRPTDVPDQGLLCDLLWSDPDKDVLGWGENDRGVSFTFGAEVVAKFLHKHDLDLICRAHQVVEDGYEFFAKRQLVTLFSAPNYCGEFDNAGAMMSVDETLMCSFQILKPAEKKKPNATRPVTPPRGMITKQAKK

Consider “Astrin-CFP (WT) (from UniProt Q96R06) 4A (RVMF motif changed to AAAA)”, for which the response is 1.2.
